In US20250076311A1 (Chugai, published 2025):
Substitutions are numbered along the chain they refer to. Names may count otherwise. Blank lines part the entries; values can stand above or below the binder they belong to.

Tests used:
[1] = molecular target: T1, cynomolgus monkey FcγRIIIaS extracellular domain with C-terminal His-tag (cynomolgus monkey, UniProt Q8SPW2 21-206 at identity 1.00)); test: SPR, KD(SG1)/KD(variant)
T1 construct: also called cyno FcgRIIIaS; cynoFcγRIIIaS
T1 chain: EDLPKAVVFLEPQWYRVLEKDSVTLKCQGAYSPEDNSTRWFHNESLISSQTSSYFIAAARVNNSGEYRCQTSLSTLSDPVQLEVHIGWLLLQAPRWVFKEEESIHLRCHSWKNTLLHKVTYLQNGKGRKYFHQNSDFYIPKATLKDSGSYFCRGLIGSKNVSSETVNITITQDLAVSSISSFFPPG
Protocol: (§1) The kinetic analysis of interactions between these antibodies and FcγR was carried out using BIACORE® T200 or BIACORE® 4000 (GE Healthcare). HBS-EP+ (GE Healthcare) was used as the running buffer, and the measurement temperature was set to 25° C. […] After the measurement, the antibody captured on the chip was washed off by allowing reaction with 10 mM glycine-HCl, pH1.5 and 25 mM NaOH so that the chip was regenerated and used repeatedly. The sensorgrams obtained as measurement results were analyzed by the 1:1 Langmuir binding model using the BIACORE® Evaluation Software to calculate the binding rate constant ka (L/mol/s) and dissociation rate constant kd (1/s), and the dissociation constant KD (mol/L) was calculated from these values. […] Regarding such interactions, KD values were calculated using the following 1:1 binding model described in BIACORE® T100 Software Handbook BR1006-48 Edition AE.

[2] = molecular target: T2, cynomolgus monkey FcγRIIa1 extracellular domain with C-terminal His-tag (cynomolgus monkey); test: SPR, KD(SG1)/KD(variant)
T2 construct: also called cyno FcgRIIa1; cynoFcγRIIa1
T2 chain: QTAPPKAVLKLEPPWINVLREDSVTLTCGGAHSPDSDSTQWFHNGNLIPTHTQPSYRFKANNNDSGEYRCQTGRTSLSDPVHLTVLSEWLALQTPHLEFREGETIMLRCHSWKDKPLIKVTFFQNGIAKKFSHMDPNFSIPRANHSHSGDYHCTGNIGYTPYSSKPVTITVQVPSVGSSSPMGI
Protocol: as §1

[3] = molecular target: T1, cynomolgus monkey FcγRIIIaS …; test: SPR, antibody captured, FcγR analyte
[4] = molecular target: T3, cynomolgus monkey FcγRIIa2 extracellular domain, His-tagged (cynomolgus monkey); test: SPR Biacore, antibody captured, FcgR analyte
T3 construct: also called cyno FcγRIIa2; cynoFcgRIIa2; not shown: C-terminal His-tag
T3 chain: T2 chain with P95T, T121A, I127K, A128S, K130N, D135N, R142Q

[5] = molecular target: T4, cynomolgus monkey FcγRIIa3 extracellular domain, His-tagged (cynomolgus monkey); test: SPR Biacore, antibody captured, FcgR analyte
T4 construct: also called cyno FcγRIIa3; cynoFcgRIIa3; not shown: C-terminal His-tag
T4 chain: T2 chain with P95T, T121A, A128S, H133P, D135N

[6] = molecular target: T5, human FcγRIIIaV extracellular domain, C-terminal His-tag (human, UniProt P08637 17-208); test: SPR (BIACORE), captured by anti-human kappa, FcgR analyte
T5 construct: also called FcgRIIIaV
Protocol: as §1
Furthermore, the substitutions used in Example 29 for improving antibody half-life and reducing binding to rheumatoid factor were introduced into human FcγRIIb-enhanced Fc variants and their affinity against human FcγRs were analyzed (Table 29).

T5 sequence (P08637 17-208 F176V): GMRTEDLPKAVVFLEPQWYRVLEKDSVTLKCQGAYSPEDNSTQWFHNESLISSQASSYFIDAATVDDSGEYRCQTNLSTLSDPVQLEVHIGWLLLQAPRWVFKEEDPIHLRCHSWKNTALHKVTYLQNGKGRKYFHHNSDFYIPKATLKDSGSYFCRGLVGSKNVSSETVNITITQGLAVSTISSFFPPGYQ

- KD fold (SG1 = 1) [1]: 0.08 fold
- KD fold (SG1 = 1) [2]: 3.5 fold
- Kd [3]: 3.3 µM
B1: MS1032LO06-PK55 (antibody, human IgG1, kappa)
heavy: QVTLKESGPVLVKPTETLTLTCTVSGIDLSHDDISWVRQAPGKGLEWVGIISYAGSTYYASWAKGRLTISKDTSKNQVVLTMTNMDPVDTATYYCARGVPAYSHGGDLWGQGTLVTVSSASTKGPSVFPLAPSSKSTSGGTAALGCLVKDYFPEPVTVSWNSGALTSGVHTFPAVLQSSGLYSLSSVVTVPSSSLGTQTYICNVNHKPSNTKVDKKVEPKSCDKTHTCPPCPAPELLNGPSVFLFPPKPKDTLMISRTPEVTCVVVDVSDEDPEVKFNWYVDGVEVHNAKTKPREEQYNSTYRVVSVLTVLHRDWLNGKEYKCKVSNKALPKPIEKTISKAKGQRREPQVYTLPPSREEMTKNQVSLTCLVKGFYPSDIAVEWESNGQPENNYKTTPPVLDSDGSFFLYSKLTVDKSRWQQGNVFSCSVMHEALHNHYTQKSLSLSP
light: DIVMTQSPATLSLSPGERATLSCTSSQSVYHANWLSWFQQKPGQPPKLLIYWASTLAYGVPSRFSGSGSGTDFTLTISSLQPEDAATYYCAGGYGGGRYAFGQGTKVEIKRTVAAPSVFIFPPSDEQLKSGTASVVCLLNNFYPREAKVQWKVDNALQSGNSQESVTEQDSKDSTYSLSSTLTLSKADYEKHKVYACEVTHQGLSSPVTKSFNRGEC
notes: MY201 with Q311R/P343R; also called MS103205H795-PK55; M103205H795-MY55

- Kd [4]: 2.6 µM
- Kd [5]: 6.7 µM
B2: M103205H795-MY066/M103202L889-SK1 (antibody, human IgG1, kappa, name in EU numbering)
heavy: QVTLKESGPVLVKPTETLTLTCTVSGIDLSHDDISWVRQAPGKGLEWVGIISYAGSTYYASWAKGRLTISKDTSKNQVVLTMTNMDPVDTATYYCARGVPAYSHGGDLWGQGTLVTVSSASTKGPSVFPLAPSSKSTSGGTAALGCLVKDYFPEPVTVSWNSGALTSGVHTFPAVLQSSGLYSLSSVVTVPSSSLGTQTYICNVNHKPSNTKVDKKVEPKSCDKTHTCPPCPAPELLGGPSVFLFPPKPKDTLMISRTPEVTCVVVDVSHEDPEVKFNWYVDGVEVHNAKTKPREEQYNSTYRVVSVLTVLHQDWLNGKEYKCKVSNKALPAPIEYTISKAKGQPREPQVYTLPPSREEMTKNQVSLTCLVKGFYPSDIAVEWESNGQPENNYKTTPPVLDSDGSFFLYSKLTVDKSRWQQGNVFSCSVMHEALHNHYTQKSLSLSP
light: B1 light
notes: Substitution introduced into M103205H795-SG1; EU numbering

- Kd [4]: 2.6 µM
- Kd [5]: 6.9 µM
B3: M103205H795-MY064/M103202L889-SK1 (antibody, human IgG1, kappa, name in EU numbering)
heavy: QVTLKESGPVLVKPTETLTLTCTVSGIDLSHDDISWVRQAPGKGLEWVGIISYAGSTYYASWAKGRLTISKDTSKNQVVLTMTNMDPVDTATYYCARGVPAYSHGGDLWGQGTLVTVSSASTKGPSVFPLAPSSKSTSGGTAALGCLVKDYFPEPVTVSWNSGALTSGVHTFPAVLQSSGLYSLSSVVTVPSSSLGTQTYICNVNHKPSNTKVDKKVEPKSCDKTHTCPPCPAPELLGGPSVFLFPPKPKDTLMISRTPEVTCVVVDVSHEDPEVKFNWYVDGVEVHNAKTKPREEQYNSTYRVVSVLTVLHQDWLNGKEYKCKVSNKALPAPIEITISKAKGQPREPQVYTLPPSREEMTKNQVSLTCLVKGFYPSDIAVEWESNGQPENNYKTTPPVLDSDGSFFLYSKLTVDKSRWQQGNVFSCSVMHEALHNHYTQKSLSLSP
light: B1 light
notes: as for B2

- Kd [6]: 900 µM
B4: MS103240H795-TT72/M103202L1045-SK1 (antibody)
heavy: QVQLVESGGGLVQPGGSLRLSCAVSGIDLSHDDISWVRQAPGKGLEWVSIISYAGSTYYASWAKGRLTISKDTSKNQVVLTMTNMDPVDTATYYCARGVPAYSHGGDLWGQGTLVTVSSASTKGPSVFPLAPSSKSTSGGTAALGCLVKDYFPEPVTVSWNSGALTSGVHTFPAVLQSSGLYSLSSVVTVPSSSLGTQTYICNVNHKPSNTKVDKKVEPKSCDKTHTCPPCPAPELLGGDSVFLFPPKPKDVLMISRTPEVTCVVIDVSHEDPEVKFNWYVDGVEVHNAKTKPREEQYNSTYRVVSVLPVLHRDWLNGKEYKCKVSNKALPKPIEKTISKAKGQPREPQVYTLPPSREEMTKNQVSLTCLVKGFYPSDIAVEWESNGQPENNYKTTPPVLDSDGSFFLYSKLTVKKSRWQQGNVFSCSVMHEALHAHYTRKELSLSP
light: B1 light with S25T, A32E
notes: copies: 2 + 2

- Kd [6]: 930 µM
B5: MS103240H795-TT69/M103202L1045-SK1 (antibody)
heavy: B4 heavy with I266V, M430L, Y438T
light: B1 light with S25T, A32E
notes: copies: 2 + 2

- Kd [6]: 960 µM
B6: MS103240H795-TT90/M103202L1045-SK1 (antibody)
heavy: B4 heavy with L236Y, P345R, K415D
light: B1 light with S25T, A32E
